In patent US11739161B2, “Methods for treating and diagnosing prostate cancer” (Tufts Medical Center, Inc., priority 2017, dated 2023):

Key:
Assay type in all cases: cell-based, human
[1] = system: AXL phosphorylation in DU145 cells; assay: AXL phosphorylation (phospho-RTK array, immunoblot); conditions: serum-starved DU145, 1 μg/ml protein
Protocol: FIGS. 12A-F. RNASE4 induces AXL phosphorylation. (A) Human phospho-receptor tyrosine kinase (RTK) antibody array analysis. Serum-starved DU145 cells were treated with or without 1 μg/ml of RNASE4 for 5 minutes. A total of 1.5 mg cell lysate protein was blotted on each array membrane. […] (B) Immunoblot analysis of RNASE4-stimulated AXL phosphorylation. DU145 cells were serum-starved overnight and treated with 1 μg/ml of RNASE4 for the indicated time. Cell lysates were analyzed by antibodies against total AXL and phospho-AXL, with β-actin as the loading control. Left panels, immunoblots; right panel, Image J quantification of p-AXL normalized to total AXL. (C) Immunoblot analysis of phospho-AXL in response to stimulation by ANG, RNase A, and RNASE4. DU145 cells were serum-starved overnight and treated with 1 μg/ml of ANG, RNase A, or RNASE4 for 15 minutes. Left panels, immunoblots; right panel, quantification. (D) Effect of AXL inhibitor R428 on RNASE4-induced cell proliferation. Serum-starved DU145 cells were incubated with 1 or 3 μM R428 for 3 hours and then stimulated by 1 μg/ml of RNASE4 for 3 days. Cell numbers were determined by MTT assay. Data shown are means±SEM of a representative experiment (in triplicates) of 3 independent repeats. **P≤0.01 and ***P≤0.001, by unpaired two-tailed Student's t test. (E) Effect of AXL inhibitor R428 on RNASE4-induced AKT and P6 phosphorylation. Serum-starved DU145 cells were incubated with 1 or 3 μM R428 for 3 hours and then stimulated by 1 μg/ml of RNASE4 for 5 minutes. Cell lysates were analyzed for AKT and P6 phosphorylation by immunoblotting. Top panels, immunoblots; bottom panels, quantification of phospho-AKT and phospho-S6 by Image J analyses normalized to total AKT and P6, respectively. (F) Schematic presentation of proposed involvement of AXL in RNASE4-stimulated cellular events.
(§1) Human Phospho-RTK Arrays were purchased from R&D Systems. […] Protein concentrations were quantified by Bradford Assay and 1.5 mg cell lysate was used per array. Pixel densities on were analyzed by ImageJ. […]

PC-3 cells = assay: RNASE4-induced cell proliferation (MTT assay); conditions: exogenous RNASE4 1 μg/ml, PC-3, 2% FBS
Protocol: (§2) FIGS. 11A-F. RNASE4 induces PC-3 cell proliferation and phosphorylation of AKT and S6. (A) Exogenous RNASE4 (1 μg/ml) stimulates PC-3 cells proliferation in the presence of 2% FBS. Cell numbers were determined by MTT assay. (B) Time course of AKT and S6 phosphorylation of serum-starved PC-3 cells by RNASE4 (1 μg/ml). Left panels, immunoblots; right panels, quantification of p-AKT and p-S6 normalized to total AKT and S6 by Image J. (C) Effect of AKT inhibitor MK-2206, PI3K inhibitors LY294002 and Wortmannin, and mTOR inhibitor Rapamycin on RNASE4-induced PC-3 cell proliferation. Cells were pre-incubated with the inhibitors at the indicated concentrations for 1 hour prior to be stimulated by RNASE4 (1 μg/ml) for 3 days. Cell numbers were determined by MTT assay. (D) Human phospho-RTK antibody array analysis of starved PC-3 cells treated with or without 1 μg/ml RNASE4 for 5 minutes. (E) Time course of AXL phosphorylation stimulated by RNASE4 in PC-3 cells. Serum-starved PC-3 cells were treated with 1 μg/ml RNASE4 for different time. Cell lysates were analyzed for total AXL and phopho-AXL by immunoblotting. Left panels, immunoblots; right panel, quantification phospho-AXL normalized to total AXL by Image J analysis. (F) Effect of AXL inhibitor R428 on RNASE4-induced PC-3 cell proliferation. Serum-starved PC-3 cells were incubated with 1 or 3 μM R428 for 3 hours and then stimulated by 1 μg/ml of RNASE4 for 3 days. Cell numbers were determined by MTT assay. Data shown are means±SEM of a representative experiments in triplicates of 3 independent repeats. **P≤0.01 and ***P≤0.001, by unpaired two-tailed Student's t test.

DU145 cells = assay: RNASE4 knockdown, cell proliferation (Coulter counter); conditions: DU145, exogenous RNASE4 1 μg/ml
Source text: FIGS. 14A-D. RNASE4 knockdown inhibits DU145 cell proliferation in vitro and colony formation in soft agar. (A) Immunoblot analysis of RNASE4 in DU145 cells stably transfected with shControl, shRNASE4-1, and shRNASE4-2. (B) qRT-PCR analysis of RNASE4 mRNA normalized to GAPDH in DU145 cells stably transfected with shControl, shRNASE4-1, and shRNASE4-2. (C) Effect of RNASE4 knockdown on cell proliferation. Cell numbers were counted by Coulter counter. Exogenous RNASE4, when presented, was at the concentration of 1 μg/ml. Data shown are from a representative experiment in triplicates of 3 independent experiments. (D) Effects of RNASE4 knockdown on colonies formation and growth of DU145 cells in soft agar. The same numbers of control and RNASE4 knockdown cells were seeded in soft agar, and grown in the absence or presence of 1 μg/ml of RNASE4 for 14 days. Colonies were counted and size measured on a Nikon Eclipse ti microscope. Top panels, representative images of colonies; scale bars=100 μm. Bottom panels, quantification of DU145 cell colonies and sizes in soft agar. Data shown are means±SEM of five randomly selected fields per dish from a representative experiment. **P≤0.01 and ***P≤0.001, by two-tailed Student's t test.
Lentiviral mediated shRNA system (pGIPZ, Open Biosystems) was used to generate control and RNASE4 knockdown cell lines. […]

[2] = system: AXL phosphorylation in PC-3 cells; assay: AXL phosphorylation (phospho-RTK array, immunoblot); conditions: serum-starved PC-3, 1 μg/ml RNASE4
Protocol: as §2, with “Serum-starved PC-3 cells were treated with 1 μg/ml RNASE4 for different time.” left out, “(F) Effect of AXL inhibitor R428 on RNASE4-induced PC-3 cell proliferation. Serum-starved PC-3 cells were incubated with 1 or 3 μM R428 for 3 hours and then stimulated by 1 μg/ml of RNASE4 for 3 days.” left out, “Data shown are means±SEM of a representative experiments in triplicates of 3 independent repeats. **P≤0.01 and ***P≤0.001, by unpaired two-tailed Student's t test.” left out
as §1

B1: RNASE4: recombinant human RNASE4 protein from pET11 expression in E. coli, purified by reversed-phase HPLC; added exogenously (protein, UniProt P34096 29-147, looked up)
Ribonuclease 4: QDGMYQRFLRQHVHPEETGGSDRYCNLMMQRRKMTLYHCKRFNTFIHEDIWNIRSICSTTNIQCKNGKMNCHEGVVKVTDCRDTGSSRAPNCRYRAIASTRRVVIACEGNPQVPVHFDG
phosphorylation of AXL [1]: induced phosphorylation
cell proliferation (PC-3 cells): stimulates
rescue of the effect of RNASE4 knockdown on cell proliferation (DU145 cells): able to rescue
phosphorylation of AXL [2]: induced phosphorylation
